Assay results as given in patent publication US20050176083.

T1: human factor VIIIa, P00451
T1 chain: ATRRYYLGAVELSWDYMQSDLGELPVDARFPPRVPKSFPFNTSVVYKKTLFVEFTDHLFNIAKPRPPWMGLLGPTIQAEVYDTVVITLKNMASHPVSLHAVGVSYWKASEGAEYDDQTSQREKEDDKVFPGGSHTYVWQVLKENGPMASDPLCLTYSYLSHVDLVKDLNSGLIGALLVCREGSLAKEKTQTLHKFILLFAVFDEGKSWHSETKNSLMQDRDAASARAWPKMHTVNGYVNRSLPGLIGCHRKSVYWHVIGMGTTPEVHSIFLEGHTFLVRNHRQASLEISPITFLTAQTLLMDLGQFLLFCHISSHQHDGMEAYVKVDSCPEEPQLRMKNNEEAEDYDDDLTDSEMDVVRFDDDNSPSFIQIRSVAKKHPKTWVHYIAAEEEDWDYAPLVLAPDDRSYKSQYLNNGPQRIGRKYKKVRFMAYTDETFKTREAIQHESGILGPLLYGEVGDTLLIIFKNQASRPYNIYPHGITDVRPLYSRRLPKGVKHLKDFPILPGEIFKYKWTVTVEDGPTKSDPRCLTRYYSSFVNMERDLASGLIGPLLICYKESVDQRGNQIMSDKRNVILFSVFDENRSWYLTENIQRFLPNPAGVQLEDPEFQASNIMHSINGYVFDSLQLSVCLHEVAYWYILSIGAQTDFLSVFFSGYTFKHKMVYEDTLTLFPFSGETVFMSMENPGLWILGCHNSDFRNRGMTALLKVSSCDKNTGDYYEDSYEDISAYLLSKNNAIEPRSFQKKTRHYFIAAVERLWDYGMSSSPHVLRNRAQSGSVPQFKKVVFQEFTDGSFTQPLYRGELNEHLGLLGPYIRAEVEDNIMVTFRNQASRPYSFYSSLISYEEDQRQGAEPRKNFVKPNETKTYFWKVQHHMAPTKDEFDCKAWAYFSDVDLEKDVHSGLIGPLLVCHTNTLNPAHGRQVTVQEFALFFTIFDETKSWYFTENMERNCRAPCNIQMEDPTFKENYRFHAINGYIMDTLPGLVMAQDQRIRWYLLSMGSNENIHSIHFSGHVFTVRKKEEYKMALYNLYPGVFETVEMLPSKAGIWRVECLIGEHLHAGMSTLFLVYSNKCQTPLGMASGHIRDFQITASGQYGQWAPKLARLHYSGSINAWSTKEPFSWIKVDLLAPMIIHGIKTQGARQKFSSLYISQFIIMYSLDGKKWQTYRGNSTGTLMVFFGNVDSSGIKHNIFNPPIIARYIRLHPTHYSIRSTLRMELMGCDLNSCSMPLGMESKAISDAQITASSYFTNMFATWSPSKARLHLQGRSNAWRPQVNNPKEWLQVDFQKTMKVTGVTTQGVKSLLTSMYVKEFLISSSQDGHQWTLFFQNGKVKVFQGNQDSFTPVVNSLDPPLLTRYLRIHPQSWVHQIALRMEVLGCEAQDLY


Assays:
[1] = molecular target: Q506 mutant human factor Va (FVa Leiden), P12259
Chain of Q506 mutant human factor Va (FVa Leiden), P12259 (P12259 other isoform, or with tags, fused parts or gaps mutant): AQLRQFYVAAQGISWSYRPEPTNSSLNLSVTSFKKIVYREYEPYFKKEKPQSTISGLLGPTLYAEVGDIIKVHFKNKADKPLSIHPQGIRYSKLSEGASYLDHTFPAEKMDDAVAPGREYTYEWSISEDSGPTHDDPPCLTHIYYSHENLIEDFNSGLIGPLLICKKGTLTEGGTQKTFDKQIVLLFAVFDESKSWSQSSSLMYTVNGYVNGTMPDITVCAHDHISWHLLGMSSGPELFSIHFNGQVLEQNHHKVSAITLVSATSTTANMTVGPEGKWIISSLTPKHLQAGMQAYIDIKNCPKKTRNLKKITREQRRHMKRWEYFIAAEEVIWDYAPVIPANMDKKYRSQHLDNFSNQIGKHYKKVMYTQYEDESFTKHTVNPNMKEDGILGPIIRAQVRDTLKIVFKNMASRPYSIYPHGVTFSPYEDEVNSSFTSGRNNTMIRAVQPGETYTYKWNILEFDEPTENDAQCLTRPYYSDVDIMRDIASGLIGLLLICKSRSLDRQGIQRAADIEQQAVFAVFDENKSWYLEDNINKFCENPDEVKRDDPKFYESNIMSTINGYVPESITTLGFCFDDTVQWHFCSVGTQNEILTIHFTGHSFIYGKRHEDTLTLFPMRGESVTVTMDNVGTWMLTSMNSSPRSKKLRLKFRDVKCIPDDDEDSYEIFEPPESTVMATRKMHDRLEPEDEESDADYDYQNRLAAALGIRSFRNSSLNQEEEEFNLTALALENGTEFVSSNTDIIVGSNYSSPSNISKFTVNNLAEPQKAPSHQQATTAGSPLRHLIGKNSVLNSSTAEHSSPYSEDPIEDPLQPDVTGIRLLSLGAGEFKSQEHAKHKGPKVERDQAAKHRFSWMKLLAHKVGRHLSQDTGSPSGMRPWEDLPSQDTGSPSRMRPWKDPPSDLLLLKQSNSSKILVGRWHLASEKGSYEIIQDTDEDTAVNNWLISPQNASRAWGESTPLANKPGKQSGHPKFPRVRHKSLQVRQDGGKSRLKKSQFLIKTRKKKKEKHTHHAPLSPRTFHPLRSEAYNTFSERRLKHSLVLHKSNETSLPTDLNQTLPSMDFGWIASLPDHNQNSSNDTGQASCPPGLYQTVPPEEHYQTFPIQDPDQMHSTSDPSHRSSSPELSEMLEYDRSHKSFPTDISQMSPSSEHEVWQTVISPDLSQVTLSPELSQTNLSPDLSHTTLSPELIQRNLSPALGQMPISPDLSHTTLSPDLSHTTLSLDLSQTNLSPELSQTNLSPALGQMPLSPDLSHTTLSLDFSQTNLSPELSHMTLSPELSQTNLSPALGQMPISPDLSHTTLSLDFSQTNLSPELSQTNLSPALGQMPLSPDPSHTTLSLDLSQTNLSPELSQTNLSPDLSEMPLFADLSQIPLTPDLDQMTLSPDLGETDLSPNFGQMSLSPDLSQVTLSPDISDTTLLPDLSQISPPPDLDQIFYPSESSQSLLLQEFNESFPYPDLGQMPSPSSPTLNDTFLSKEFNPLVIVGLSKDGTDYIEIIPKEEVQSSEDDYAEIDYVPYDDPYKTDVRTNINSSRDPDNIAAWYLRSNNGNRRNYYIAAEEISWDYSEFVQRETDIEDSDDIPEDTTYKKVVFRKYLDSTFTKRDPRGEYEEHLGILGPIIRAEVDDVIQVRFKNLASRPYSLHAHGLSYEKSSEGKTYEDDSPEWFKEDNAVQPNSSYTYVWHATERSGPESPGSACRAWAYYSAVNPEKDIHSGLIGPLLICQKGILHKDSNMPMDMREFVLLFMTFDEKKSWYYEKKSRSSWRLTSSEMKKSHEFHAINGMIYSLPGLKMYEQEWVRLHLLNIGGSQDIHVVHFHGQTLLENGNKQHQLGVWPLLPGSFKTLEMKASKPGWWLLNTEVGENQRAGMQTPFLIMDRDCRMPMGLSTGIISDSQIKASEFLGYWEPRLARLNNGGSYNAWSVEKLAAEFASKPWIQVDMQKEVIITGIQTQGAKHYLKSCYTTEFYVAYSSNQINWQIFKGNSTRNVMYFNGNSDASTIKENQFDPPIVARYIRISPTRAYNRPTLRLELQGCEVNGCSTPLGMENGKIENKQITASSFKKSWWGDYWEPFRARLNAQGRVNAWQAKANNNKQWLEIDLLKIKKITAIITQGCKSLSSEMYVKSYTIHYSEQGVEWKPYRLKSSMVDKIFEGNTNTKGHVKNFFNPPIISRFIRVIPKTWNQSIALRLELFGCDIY

[2] = molecular target: bovine factor Va (in bovine plasma), Q28107
Chain of bovine factor Va (in bovine plasma), Q28107 (Q28107 29-2211): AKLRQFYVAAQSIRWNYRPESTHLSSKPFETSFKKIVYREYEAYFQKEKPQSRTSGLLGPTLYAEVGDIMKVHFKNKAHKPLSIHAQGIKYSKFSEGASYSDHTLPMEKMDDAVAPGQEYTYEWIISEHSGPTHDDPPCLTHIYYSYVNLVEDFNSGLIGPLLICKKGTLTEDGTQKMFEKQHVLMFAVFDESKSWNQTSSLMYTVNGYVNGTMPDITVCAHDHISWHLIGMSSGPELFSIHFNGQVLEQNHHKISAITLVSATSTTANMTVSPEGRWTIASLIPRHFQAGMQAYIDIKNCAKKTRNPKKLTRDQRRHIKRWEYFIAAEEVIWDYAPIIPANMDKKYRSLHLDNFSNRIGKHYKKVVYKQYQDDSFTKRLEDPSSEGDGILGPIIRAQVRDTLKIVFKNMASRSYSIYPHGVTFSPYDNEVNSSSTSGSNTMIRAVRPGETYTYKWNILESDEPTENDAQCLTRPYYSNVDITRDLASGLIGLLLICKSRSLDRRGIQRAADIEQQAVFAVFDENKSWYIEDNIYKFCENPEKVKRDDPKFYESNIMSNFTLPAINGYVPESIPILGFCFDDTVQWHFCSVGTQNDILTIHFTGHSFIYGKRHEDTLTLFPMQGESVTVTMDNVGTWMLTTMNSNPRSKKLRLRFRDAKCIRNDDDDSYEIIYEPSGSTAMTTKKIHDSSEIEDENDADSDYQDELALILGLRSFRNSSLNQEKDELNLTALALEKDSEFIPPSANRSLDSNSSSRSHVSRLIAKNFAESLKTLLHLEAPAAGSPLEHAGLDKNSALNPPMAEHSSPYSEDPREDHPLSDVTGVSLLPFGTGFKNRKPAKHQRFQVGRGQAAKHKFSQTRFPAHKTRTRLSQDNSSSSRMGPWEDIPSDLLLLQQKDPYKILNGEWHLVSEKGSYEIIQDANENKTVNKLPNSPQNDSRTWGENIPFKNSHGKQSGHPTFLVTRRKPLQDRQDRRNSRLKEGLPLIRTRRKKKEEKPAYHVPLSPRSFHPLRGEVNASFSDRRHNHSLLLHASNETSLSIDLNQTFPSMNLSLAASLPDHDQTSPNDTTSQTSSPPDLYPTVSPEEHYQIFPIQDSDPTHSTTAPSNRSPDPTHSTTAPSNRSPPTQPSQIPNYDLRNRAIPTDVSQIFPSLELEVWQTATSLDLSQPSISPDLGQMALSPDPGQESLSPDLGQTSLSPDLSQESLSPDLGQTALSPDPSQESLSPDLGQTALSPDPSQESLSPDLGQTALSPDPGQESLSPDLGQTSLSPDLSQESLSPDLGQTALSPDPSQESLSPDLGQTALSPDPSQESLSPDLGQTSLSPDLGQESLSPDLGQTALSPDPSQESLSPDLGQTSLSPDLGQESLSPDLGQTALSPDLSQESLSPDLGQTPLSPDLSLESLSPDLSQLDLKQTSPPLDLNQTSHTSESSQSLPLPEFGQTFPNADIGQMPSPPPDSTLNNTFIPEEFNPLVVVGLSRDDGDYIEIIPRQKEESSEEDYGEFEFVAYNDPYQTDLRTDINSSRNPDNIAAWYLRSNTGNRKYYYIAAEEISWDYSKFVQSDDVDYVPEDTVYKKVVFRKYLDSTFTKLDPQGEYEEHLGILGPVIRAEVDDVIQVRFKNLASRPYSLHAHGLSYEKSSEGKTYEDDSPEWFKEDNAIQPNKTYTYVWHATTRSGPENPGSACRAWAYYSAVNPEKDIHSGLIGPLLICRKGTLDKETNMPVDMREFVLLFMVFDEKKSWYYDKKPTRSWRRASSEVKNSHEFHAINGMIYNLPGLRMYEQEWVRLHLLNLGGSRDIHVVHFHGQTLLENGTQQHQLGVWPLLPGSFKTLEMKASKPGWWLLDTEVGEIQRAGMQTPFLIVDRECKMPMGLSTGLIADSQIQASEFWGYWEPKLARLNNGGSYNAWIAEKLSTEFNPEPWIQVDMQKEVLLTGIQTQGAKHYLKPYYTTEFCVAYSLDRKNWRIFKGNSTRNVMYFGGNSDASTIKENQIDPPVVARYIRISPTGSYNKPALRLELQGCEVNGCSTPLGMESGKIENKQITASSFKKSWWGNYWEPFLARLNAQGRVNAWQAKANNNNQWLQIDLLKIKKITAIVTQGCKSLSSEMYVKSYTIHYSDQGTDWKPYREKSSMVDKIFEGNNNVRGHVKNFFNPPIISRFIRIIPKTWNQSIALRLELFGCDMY

[3] = molecular target: T1, human factor VIIIa, P00451
[4] = molecular target: human factor Va (normal, from human plasma), P12259
Chain of human factor Va (normal, from human plasma), P12259 (P12259 29-2224): as the sequence (P12259 other isoform, or with tags, fused parts or gaps mutant) above, with Q506R counted along it

| Protein | remaining FVa activity over time (prothrombinase assay); plasma FVa, 0.4 nM APC, phospholipid vesicles [1] | prothrombin time (PT) assay, clotting time in bovine plasma [2] | factor VIIIa inactivation assay (FXa formation, S-2222) with human protein S and factor V [3] | factor VIIIa inactivation assay with bovine protein S and bovine factor V [3] | prothrombin time (PT) assay, clotting time in human plasma [4] | remaining FVa activity over time (prothrombinase assay, S2238); 0.76 nM plasma FVa, 0.39 nM APC, phospholipid vesicles [4] | factor VIIIa inactivation assay with human protein S and factor V, low APC concentrations [3] |
| --- | --- | --- | --- | --- | --- | --- | --- |
| wild-type human activated protein C (recombinant, thrombin-activated) (protein) chain 1: ANSFLEELRHSSLERECIEEICDFEEAKEIFQNVDDTLAFWSKHVDGDQCLVLPLEHPCASLCCGHGTCIDGIGSFSCDCRSGWEGRFCQREVSFLNCSLDNGGCTHYCLEEVGWRRCSCAPGYKLGDDLLQCHPAVKFPCGRPWKRMEKKRSHL chain 2: LIDGKMTRRGDSPWQVVLLDSKKKLACGAVLIHPSWVLTAAHCMDESKKLLVRLGEYDLRRWEKWELDLDIKEVFVHPNYSKSTTDNDIALLHLAQPATLSQTIVPICLPDSGLAERELNQAGQETLVTGWGYHSSREKEAKRNRTFVLNFIKIPVVPHNECSEVMSNMVSENMLCAGILGDRQDACEGDSGGPMVASFHGTWFLVGLVSWGEGCGLLHNYGVYTKVSRYLDWIHGHIRDKEAPQKSWAP | The addition of wt APC resulted in a slow decrease in FVa activity corresponding to cleavage at Arg306 | wild-type human APC and human APC-SP efficiently prolong clotting time in bovine plasma | the activity of factor VIIIa was inactivated by all APC's from section (2)(i) above but high concentrations were needed | able to inhibit factor VIIIa activity in the presence of bovine protein S and bovine factor V | Both wild-type human APC and human APC-SP increased clotting times essentially in this PT assay | initial rapid loss of FVa activity that is observed during the first 5 minutes of incubation; slow decrease in FVa activity observed between 5 minutes and 25 minutes of incubation | – |
| wild-type bovine activated protein C (recombinant, thrombin-activated) (protein) chain 1: ANSFLEELRPGNVERECSEEVCEFEEAREIFQNTEDTMAFWSKYSDGDQCEDRPSGSPCDLPCCGRGKCIDGLGGFRCDCAEGWEGRFCLHEVRFSNCSAENGGCAHYCMEEEGRRHCSCAPGYRLEDDHQLCVSKVTFPCGRLGKRMEKKRKTL chain 2: IVDGQEAGWGESPWQAVLLDSKKKLVCGAVLIHVSWVLTVAHCLDSRKKLIVRLGEYDMRRWESWEVDLDIKEVIIHPNYTKSTSDNDIALLRLAKPATLSQTIVPICLPDSGLSERKLTQVGQETVVTGWGYRDETKRNRTFVLSFIKVPVVPYNACVHAMENKISENMLCAGILGDPRDACEGDSGGPMVTFFRGTWFLVGLVSWGEGCGRLYNYGVYTKVSRYLDWIYGHIKAQEAPLESQVP | – | wild-type bovine APC and its mutant expressed only weak anticoagulant acitivity in bovine plasma | the activity of factor VIIIa was inactivated by all APC's from section (2)(i) above but high concentrations were needed | able to inhibit factor VIIIa activity in the presence of bovine protein S and bovine factor V; worked more efficiently than wild-type human APC and human APC-SP | Neither wild-type bovine APC nor bovine APC-SP had any effect in human plasma | – | At low concentrations, neither bovine wild-type APC nor bovine APC-SP could inactivate factor VIIIa |
